Target: T1, GST-pRb (non-acetylated), P06400
T1 chain: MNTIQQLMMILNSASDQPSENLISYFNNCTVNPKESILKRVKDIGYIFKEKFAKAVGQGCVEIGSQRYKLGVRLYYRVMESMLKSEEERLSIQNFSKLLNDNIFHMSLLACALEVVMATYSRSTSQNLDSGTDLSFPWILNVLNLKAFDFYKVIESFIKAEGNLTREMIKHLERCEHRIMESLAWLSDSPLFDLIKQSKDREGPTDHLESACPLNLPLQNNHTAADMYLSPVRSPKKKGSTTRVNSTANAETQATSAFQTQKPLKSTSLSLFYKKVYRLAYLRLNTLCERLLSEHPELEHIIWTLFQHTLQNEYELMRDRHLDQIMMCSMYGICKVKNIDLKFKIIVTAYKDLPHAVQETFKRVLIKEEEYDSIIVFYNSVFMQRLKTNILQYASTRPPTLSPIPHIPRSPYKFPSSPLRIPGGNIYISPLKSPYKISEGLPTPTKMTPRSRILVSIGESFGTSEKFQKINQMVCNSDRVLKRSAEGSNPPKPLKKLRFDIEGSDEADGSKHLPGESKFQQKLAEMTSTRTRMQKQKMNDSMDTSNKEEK

B1: his-tagged p300 1195-1673 (protein)
chain: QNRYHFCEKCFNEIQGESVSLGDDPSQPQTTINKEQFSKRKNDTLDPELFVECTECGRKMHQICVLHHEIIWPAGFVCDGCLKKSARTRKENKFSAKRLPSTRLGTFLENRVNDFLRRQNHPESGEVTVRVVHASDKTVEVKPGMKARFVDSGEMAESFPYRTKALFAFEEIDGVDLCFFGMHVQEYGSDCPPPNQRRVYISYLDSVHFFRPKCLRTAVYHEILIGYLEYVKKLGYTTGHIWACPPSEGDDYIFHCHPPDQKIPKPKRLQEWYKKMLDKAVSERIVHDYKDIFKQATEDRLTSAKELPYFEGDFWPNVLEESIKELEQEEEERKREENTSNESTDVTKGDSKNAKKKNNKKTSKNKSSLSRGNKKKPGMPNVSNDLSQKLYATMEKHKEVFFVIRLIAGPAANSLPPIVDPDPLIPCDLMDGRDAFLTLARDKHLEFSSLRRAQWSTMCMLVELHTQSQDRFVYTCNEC
B1 was tested, and the “in vitro acetylation of GST-pRb with 14C acetyl CoA” value was “GST-pRb could be acetylated by p300”.

Reference: patent publication US20040048242
